The record followed here is patent US20230235000A1.

The assay has as its target recombinant mutant SOD1-G93A (His-tag) (human) (UniProt P00441). The experiment in a line: cell-based or functional assay.

recombinant mutant SOD1-G93A (His-tag) (human), sequence (P00441 whole entry, stated change not applied): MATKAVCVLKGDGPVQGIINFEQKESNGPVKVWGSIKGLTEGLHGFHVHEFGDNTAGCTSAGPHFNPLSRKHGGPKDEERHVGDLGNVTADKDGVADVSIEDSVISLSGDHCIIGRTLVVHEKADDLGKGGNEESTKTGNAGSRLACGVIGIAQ

For “recombinant human FAIM-S (His-tag) (from UniProt Q9NVQ4 1-179)”, the filter trap density of pre-aggregated SOD1 G93A after 8 µM FAIM for 2.5 hr (fraction of buffer control) is 0.5.
